Substrate: NCCCC[C@H](N)C(=O)O
Assay: purified protein
Conditions: 5 mM acetyl-CoA, 50 mM Tris-HCl pH 10.0, 40 °C, 0.65 mM DTNB

B1: ShKAT (Salinicoccus halodurans) (protein)
chain: MWQTKKFNELSLSEIEQIFRLRQSIFIIEQQSYFADIDGKDTEAIHIFNKENNIIWAYCRILIYDEKVILGRVTVHSDKRGNGNGRELLNTALKYLKENYPDKFVQIVAMSYLKDFYKSYGFKSISEVYIMDDHPHEDMILKH
Km: 1.89 mM

From publication PMC9049628
